One test addresses T1, HER4 (UniProt Q15303 26-649, limits assumed).
T1 construct: also called EGFR HER family protein HER4
T1 sequence (looked up): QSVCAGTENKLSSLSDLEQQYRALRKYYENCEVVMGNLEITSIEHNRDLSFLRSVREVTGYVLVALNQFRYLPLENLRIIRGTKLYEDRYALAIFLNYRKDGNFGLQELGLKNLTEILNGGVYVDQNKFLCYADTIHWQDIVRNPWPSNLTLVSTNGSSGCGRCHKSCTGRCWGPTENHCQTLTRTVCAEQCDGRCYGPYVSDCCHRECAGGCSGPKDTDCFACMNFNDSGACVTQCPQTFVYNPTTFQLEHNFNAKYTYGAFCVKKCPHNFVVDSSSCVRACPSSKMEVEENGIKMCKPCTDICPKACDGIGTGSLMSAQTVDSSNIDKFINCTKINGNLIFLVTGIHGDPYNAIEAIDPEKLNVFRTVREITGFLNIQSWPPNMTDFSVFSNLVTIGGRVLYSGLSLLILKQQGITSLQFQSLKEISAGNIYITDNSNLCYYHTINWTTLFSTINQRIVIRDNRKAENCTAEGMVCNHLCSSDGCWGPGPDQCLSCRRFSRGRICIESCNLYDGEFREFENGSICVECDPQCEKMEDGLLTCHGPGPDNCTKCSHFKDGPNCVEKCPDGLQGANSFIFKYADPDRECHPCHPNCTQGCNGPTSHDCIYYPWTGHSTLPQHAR
As to the kind of experiment: ELISA: antigen coated at 1 ug/mL, antibody dilution series, goat anti-human Fab-HRP, A450; panel Human HER4. (In general: ELISA stands for enzyme-linked immunosorbent assay.)

A further test deals with Mouse cMET (recombinant) (mouse, UniProt P16056 25-929, limits assumed). As to the kind of experiment: ELISA: antigen coated at 1 ug/mL, antibody dilution series, goat anti-human Fab-HRP, A450; panel Mouse cMET.
The target in a further test is T2, Semaphorin 3a (UniProt Q14563 21-771, limits assumed).
T2 construct: also called Sema 3a
T2 sequence (looked up): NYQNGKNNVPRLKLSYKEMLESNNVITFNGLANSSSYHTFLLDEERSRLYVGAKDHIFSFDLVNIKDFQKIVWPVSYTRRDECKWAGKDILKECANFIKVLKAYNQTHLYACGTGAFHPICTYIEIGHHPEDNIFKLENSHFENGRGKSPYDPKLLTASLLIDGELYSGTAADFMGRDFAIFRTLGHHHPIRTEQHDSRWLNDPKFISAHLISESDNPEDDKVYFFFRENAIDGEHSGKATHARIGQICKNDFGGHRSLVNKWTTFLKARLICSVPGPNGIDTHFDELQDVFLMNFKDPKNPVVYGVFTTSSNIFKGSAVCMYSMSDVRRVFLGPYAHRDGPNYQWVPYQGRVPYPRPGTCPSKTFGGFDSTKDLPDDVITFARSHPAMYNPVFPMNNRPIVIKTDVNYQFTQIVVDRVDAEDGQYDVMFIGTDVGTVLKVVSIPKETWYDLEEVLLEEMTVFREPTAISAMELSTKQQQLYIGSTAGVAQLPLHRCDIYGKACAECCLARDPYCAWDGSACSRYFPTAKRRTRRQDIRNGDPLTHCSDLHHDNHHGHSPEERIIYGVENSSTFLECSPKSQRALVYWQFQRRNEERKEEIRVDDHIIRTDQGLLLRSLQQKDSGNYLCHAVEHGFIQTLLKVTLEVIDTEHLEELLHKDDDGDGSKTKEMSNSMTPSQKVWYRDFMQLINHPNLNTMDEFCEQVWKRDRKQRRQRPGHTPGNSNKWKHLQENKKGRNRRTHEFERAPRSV
Nature of the test: ELISA: antigen coated at 1 ug/mL, antibody dilution series, goat anti-human Fab-HRP, A450; panel Human Sema3a.

In test [1] the target is T3, Human EGFR (recombinant, soluble monomeric) (human, UniProt P00533 25-645).
T3 construct: also called EGFR antigen
Nature of the test: SPR, Biacore T200, antibody captured on anti-human IgG, soluble monomeric antigen as analyte, 25 C. A general note: Surface plasmon resonance follows binding to a sensor surface in real time, without labels.

The target in test [2] is T4, Human cMET (recombinant, soluble monomeric) (human, UniProt P08581 25-932).
T4 construct: in the HTRF assay it is called the human cMET receptor; also called His-tagged cMET antigen
Described as above.

Test [3] concerns the target T5, Cynomolgus monkey cMET (recombinant, soluble monomeric) (cynomolgus monkey, UniProt A0M8R7 25-932 (Papio anubis entry)).
T5 construct: also called cyno cMET
The description is as above.

In test [4] the target is T6, Cynomolgus monkey EGFR (recombinant, soluble monomeric) (cynomolgus monkey, UniProt P55245 25-645 (rhesus entry)).
T6 construct: also called cyno EGFR
Described as above.

Test [5] has as its target T7, Mouse EGFR (recombinant, soluble monomeric) (mouse, UniProt Q01279 25-647).
T7 construct: also called murine EGFR
The test is described as above.

In another test the test system is H1975 cells. Nature of the test: Internalization of AF647-labeled antibodies, live cell confocal fluorescence microscopy. Type of test: cell-based. The method, then:
Internalization kinetics of AlexaFluor647 (AF647) primary-labeled DuetMabs: RAA22/B09 and QD6/B09 antibodies was assessed in vitro using the EGFR and c-MET expressing cell line, H1975. Each antibody was pre-bound to cells and antibody translocation from cell surface to cytoplasm was then monitored using live cell confocal fluorescence microscopy. Both antibodies localized primarily on the cell surface before (T=0) subjecting to internalization conditions and were translocated to the cytoplasm area after 1 hour (data not shown). Kinetic images were taken every 5 min over the time course of internalization and were processed using a quantitative algorithm to determine internalization kinetic constants and half-times.
To evaluate the mode of antibody internalization and to investigate contribution of each arm to overall internalization of the DuetMabs, we evaluated internalization of single-arm specific control antibody molecules, QD6/IgG and B09/IgG, against duet QD6/B09, and RAA22/IgG and B09/IgG against duet RAA22/B09 in H1975 cells, which express both EGFR and c-MET. Since only one arm is specific for the target receptor, the control antibody can only internalize via one receptor eliminating dual receptor targeting and cross-linking as mode of internalization.

T4 sequence (P08581 25-932): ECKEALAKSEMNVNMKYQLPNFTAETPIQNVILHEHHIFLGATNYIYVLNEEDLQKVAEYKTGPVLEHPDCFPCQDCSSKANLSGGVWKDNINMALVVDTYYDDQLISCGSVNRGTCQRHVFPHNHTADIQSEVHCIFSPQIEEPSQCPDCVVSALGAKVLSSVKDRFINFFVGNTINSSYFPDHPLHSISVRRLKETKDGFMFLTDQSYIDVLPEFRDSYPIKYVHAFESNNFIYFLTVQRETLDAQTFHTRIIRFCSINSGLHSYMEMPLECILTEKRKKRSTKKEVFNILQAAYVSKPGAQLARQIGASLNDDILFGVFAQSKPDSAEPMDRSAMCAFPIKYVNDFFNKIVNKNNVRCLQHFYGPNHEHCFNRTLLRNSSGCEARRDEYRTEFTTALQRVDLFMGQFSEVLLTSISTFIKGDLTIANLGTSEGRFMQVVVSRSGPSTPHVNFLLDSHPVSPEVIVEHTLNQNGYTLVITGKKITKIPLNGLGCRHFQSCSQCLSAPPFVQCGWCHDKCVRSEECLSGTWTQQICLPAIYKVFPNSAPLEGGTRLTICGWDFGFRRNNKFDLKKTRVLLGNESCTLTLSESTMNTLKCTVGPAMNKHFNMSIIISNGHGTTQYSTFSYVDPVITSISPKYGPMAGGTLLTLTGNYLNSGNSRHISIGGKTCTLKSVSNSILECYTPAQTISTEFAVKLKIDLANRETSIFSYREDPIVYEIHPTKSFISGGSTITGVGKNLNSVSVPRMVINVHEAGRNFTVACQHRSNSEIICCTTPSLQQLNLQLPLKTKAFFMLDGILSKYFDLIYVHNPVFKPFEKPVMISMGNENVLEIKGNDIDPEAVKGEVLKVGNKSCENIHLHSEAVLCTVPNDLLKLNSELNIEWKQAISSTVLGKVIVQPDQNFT
T5 sequence (A0M8R7 25-932 S170N/I621T): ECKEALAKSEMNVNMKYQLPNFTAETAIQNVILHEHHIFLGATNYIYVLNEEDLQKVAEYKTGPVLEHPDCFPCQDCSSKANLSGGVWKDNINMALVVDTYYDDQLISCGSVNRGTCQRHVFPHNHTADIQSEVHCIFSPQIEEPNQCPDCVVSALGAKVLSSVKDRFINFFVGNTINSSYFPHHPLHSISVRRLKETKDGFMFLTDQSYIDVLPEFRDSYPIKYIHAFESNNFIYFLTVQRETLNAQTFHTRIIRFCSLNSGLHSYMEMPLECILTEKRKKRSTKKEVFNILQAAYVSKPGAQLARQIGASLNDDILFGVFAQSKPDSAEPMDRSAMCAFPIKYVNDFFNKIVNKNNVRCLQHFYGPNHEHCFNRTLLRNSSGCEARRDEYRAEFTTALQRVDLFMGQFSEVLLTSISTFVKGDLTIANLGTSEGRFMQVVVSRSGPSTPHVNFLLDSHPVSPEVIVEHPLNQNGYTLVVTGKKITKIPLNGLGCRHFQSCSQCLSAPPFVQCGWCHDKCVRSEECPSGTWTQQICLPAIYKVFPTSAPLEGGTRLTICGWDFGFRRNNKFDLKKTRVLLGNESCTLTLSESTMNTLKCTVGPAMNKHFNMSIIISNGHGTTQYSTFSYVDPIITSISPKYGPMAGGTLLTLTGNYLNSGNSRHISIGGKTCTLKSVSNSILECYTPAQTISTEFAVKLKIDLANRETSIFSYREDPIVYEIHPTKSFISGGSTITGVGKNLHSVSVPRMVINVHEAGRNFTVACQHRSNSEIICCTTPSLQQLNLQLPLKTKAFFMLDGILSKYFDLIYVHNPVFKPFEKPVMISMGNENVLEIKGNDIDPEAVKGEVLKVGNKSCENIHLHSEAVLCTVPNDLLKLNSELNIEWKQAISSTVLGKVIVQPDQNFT
Sequence of Mouse cMET (recombinant) (P16056 25-929 limits assumed): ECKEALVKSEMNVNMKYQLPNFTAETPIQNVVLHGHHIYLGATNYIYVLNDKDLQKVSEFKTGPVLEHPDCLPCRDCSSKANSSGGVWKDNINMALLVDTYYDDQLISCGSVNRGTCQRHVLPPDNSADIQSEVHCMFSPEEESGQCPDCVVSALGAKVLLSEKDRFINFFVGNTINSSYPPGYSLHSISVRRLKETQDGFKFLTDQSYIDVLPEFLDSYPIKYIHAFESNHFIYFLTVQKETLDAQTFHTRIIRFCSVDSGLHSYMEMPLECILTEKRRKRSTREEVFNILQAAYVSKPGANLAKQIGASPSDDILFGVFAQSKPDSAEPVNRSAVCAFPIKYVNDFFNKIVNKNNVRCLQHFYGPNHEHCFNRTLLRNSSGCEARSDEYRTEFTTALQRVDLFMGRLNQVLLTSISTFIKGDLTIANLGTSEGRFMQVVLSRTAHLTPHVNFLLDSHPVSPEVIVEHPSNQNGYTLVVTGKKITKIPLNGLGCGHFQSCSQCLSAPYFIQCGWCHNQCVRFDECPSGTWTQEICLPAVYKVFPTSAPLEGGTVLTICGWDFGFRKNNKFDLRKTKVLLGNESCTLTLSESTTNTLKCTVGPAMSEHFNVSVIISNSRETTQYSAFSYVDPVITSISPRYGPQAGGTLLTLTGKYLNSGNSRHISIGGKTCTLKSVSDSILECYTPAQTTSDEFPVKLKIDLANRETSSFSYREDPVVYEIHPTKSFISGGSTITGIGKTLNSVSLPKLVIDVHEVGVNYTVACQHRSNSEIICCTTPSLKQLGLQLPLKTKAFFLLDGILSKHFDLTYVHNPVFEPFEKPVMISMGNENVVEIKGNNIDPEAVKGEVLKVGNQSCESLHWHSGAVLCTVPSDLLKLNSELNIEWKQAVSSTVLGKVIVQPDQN

B1: RAA22/B09-57 DuetMab (bispecific antibody, human IgG1, kappa, lambda)
heavy 1: QVQLVQSGAEVKKPGSSVKVSCKASGGTFSDNDFSWVRQAPGQGLEWMGAIVAVFRTETYAQKFQDRVKITADISTRTTYMELSSLRSEDTAVYYCARRLMSAISGPGAPLLMWGQGTLVTVSSASTKGPSVFPLAPSSKSTSGGTAALGCLVKDYFPEPVTVSWNSGALTSGVHTFPAVLQSSGLYSLSSVVTVPSSSLGTQTYICNVNHKPSNTKVDKRVEPKSCDKTHTCPPCPAPELLGGPSCVFLFPPKPKDTLMISRTPEVTCVVVDVSHEDPEVKFNWYVDGVEVHNAKTKPREEQYNSTYRVVSVLTVLHQDWLNGKEYKCKVSNKALPAPIEKTISKAKGQPREPQVCTLPPSREEMTKNQVSLSCAVKGFYPSDIAVEWESNGQPENNYKTTPPVLDSDGSFFLVSKLTVDKSRWQQGNVFSCSVMHEALHNHYTQKSLSLSPGK
heavy 2: QVQLVQSGAEVKKPGASVKVSCKASGYTFTDYYIHWVRQATGQGLEWMGWMNPNSGNTGYAQKFQGRVTMTRDTSISTAYMELSSLRSEDTAVYYCARGQGYTHSWGQGTMVTVSSASTKGPSVCPLAPSSKSTSGGTAALGCLVKDYFPEPVTVSWNSGALTSGVHTFPAVLQSSGLYSLSSVVTVPSSSLGTQTYICNVNHKPSNTKVDKRVEPKSVDKTHTCPPCPAPELLGGPSCVFLFPPKPKDTLMISRTPEVTCVVVDVSHEDPEVKFNWYVDGVEVHNAKTKPREEQYNSTYRVVSVLTVLHQDWLNGKEYKCKVSNKALPAPIEKTISKAKGQPREPQVYTLPPCREEMTKNQVSLWCLVKGFYPSDIAVEWESNGQPENNYKTTPPVLDSDGSFFLYSKLTVDKSRWQQGNVFSCSVMHEALHNHYTQKSLSLSPG
light 1: QSALTQPRSVSGSPGQSVTISCTGTSSDVGGYNYVSWYQQHPGKAPKLMIYDVSKRPSGVPDRFSGSKSGNTASLTISGLQAEDEADYYCSSYTSSDTLEIFGGGTKLTVLGQPKAAPSVTLFPPSSEELQANKATLVCLISDFYPGAVTVAWKADSSPVKAGVETTTPSKQSNNKYAASSYLSLTPEQWKSHRSYSCQVTHEGSTVEKTVAPTECS
light 2: DIQMTQSPSTLSASVGDRVTITCRASEGIYHWLAWYQQKPGKAPKLLIYKASSLASGVPSRFSGSGSGTEFTLTISSLQPDDFATYYCQQYSNYPPTFGGGTKLEIKRTVAAPSVFIFPPCDEQLKSGTASVVCLLNNFYPREAKVQWKVDNALQSGNSQESVTEQDSKDSTYSLSSTLTLSKADYEKHKVYACEVTHQGLSSPVTKSFNRGEV
notes: also called monovalent bispecific EGFR/cMET DuetMAb RAA22/B09; RAA22/B09-Maia
As usually defined, the Kd is the concentration at which binding is half-saturated. In general, koff refers to the first-order rate constant of dissociation. The term kon denotes the second-order rate constant of association. Turning to B1, the binding result in the test with HER4, in the test with Mouse cMET (recombinant) and with Semaphorin 3a was “no binding (tested: 10 ug/ml)” each time. For the same molecule, the Kd turned out to be 45 nM in [1]; 2.2 nM in test [2]; 2.2 nM in test [3]; 197 nM in [4]; 575 nM in [5]. Moreover, the koff in test [1] came out at 0.00201 s⁻¹; in test [2], 0.000986 s⁻¹; in [3], 0.00212 s⁻¹; in [4], 0.00548 s⁻¹; in test [5] it was 0.0206 s⁻¹. The kon was determined as 44700 M⁻¹ s⁻¹ in test [1]; 443000 M⁻¹ s⁻¹ in [2]; 974000 M⁻¹ s⁻¹ in test [3]; 27800 M⁻¹ s⁻¹ in test [4]; 35400 M⁻¹ s⁻¹ in test [5]. Also, the “binding at T=0” value in the test on H1975 cells is 3.5×10^6 MFI. Also, the “cytoplasmic intensity values, fold higher than B09-IgG” value with H1975 cells came out at 4.70 fold. Further, in the test with H1975 cells, the “cytoplasmic intensity values, fold higher than RAA22-IgG” value stood at 10.98 fold. Besides, in the test with H1975 cells (images every 5 min), the internalization half-times came to 43.2 ± 15.5 min.

Values taken from patent US20260166140A1, “Combinations Involving Epidermal Growth Factor Receptor Tyrosine Kinase Inhibitors For the Treatment of Cancer” (AstraZeneca AB, priority 2022, published 2026).
